± gives the standard deviation of the averaged measurements.
Key:
MCF7 = assay: percentage of EdU-negative (G0-arrested) nuclei per well, 72 h; higher = more G0 arrest; conditions: reference: sequence is the full UniProt precursor, the tested protein was the secreted form or ectodomain
hTERT-HMEC = assay: as above; conditions: reference: sequence is the full UniProt precursor, the tested protein was the secreted form or ectodomain
[1] = protein concentration 0.03125 µM
[2] = protein concentration 0.3125 µM
[3] = protein concentration 0.0225 µM
[4] = protein concentration 0.01034 µM
[5] = protein concentration 0.1034 µM
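Note: secreted proteins added to cultured cells, EdU pulse at the end, nuclei found by Hoechst imaging, EdU status from nuclear versus surrounding ring intensity ratio, PBS as neutral control.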

Sequence	percentage of EdU-negative (MCF7; [1])	percentage of EdU-negative (MCF7; [2])	percentage of EdU-negative (hTERT-HMEC; [1])	percentage of EdU-negative (hTERT-HMEC; [2])	percentage of EdU-negative (MCF7; [3])	percentage of EdU-negative (MCF7; protein concentration 0.225 µM)	percentage of EdU-negative (hTERT-HMEC; [3])	percentage of EdU-negative (hTERT-HMEC; protein concentration 0.225 µM)	other results
MDTIFLWSLLLLFFGSQASRCSAQKNTEFAVDLYQEVSLSHKDNIIFSPLGITLVLEMVQLGAKGKAQQQIRQTLKQQETSAGEEFFVLKSFFSAISEKKQEFTFNLANALYLQEGFTVKEQYLHGNKEFFQSAIKLVDFQDAKACAEMISTWVERKTDGKIKDMFSGEEFGPLTRLVLVNAIYFKGDWKQKFRKEDTQLINFTKKNGSTVKIPMMKALLRTKYGYFSESSLNYQVLELSYKGDEFSLIIILPAEGMDIEEVEKLITAQQILKWLSEMQEEEVEISLPRFKVEQKVDFKDVLYSLNITEIFSGGCDLSGITDSSEVYVSQVTQKVFFEINEDGSEAATSTGIHIPVIMSLAQSQFIANHPFLFIMKHNPTESILFMGRVTNPDTQEIKGRDLDSL	24 ± 0.53%	24.9 ± 1.8%	4.81 ± 0.69%	6.48 ± 0.78%					
MVWKVAVFLSVALGIGAVPIDDPEDGGKHWVVIVAGSNGWYNYRHQADACHAYQIIHRNGIPDEQIVVMMYDDIAYSEDNPTPGIVINRPNGTDVYQGVPKDYTGEDVTPQNFLAVLRGDAEAVKGIGSGKVLKSGPQDHVFIYFTDHGSTGILVFPNEDLHVKDLNETIHYMYKHKMYRKMVFYIEACESGSMMNHLPDNINVYATTAANPRESSYACYYDEKRSTYLGDWYSVNWMEDSDVEDLTKETLHKQYHLVKSHTNTSHVMQYGNKTISTMKVMQFQGMKRKASSPVPLPPVTHLDLTPSPDVPLTIMKRKLMNTNDLEESRQLTEEIQRHLDARHLIEKSVRKIVSLLAASEAEVEQLLSERAPLTGHSCYPEALLHFRTHCFNWHSPTYEYALRHLYVLVNLCEKPYPLHRIKLSMDHVCLGHY	26.412 ± 0.015%	26 ± 1.2%	5.13 ± 0.28%	5.28 ± 0.11%					
MESPSAPPHRWCIPWQRLLLTASLLTFWNPPTTAKLTIESTPFNVAEGKEVLLLVHNLPQHLFGYSWYKGERVDGNRQIIGYVIGTQQATPGPAYSGREIIYPNASLLIQNIIQNDTGFYTLHVIKSDLVNEEATGQFRVYPELPKPSISSNNSKPVEDKDAVAFTCEPETQDATYLWWVNNQSLPVSPRLQLSNGNRTLTLFNVTRNDTASYKCETQNPVSARRSDSVILNVLYGPDAPTISPLNTSYRSGENLNLSCHAASNPPAQYSWFVNGTFQQSTQELFIPNITVNNSGSYTCQAHNSDTGLNRTTVTTITVYAEPPKPFITSNNSNPVEDEDAVALTCEPEIQNTTYLWWVNNQSLPVSPRLQLSNDNRTLTLLSVTRNDVGPYECGIQNELSVDHSDPVILNVLYGPDDPTISPSYTYYRPGVNLSLSCHAASNPPAQYSWLIDGNIQQHTQELFISNITEKNSGLYTCQANNSASGHSRTTVKTITVSAELPKPSISSNNSKPVEDKDAVAFTCEPEAQNTTYLWWVNGQSLPVSPRLQLSNGNRTLTLFNVTRNDARAYVCGIQNSVSANRSDPVTLDVLYGPDTPIISPPDSSYLSGANLNLSCHSASNPSPQYSWRINGIPQQHTQVLFIAKITPNNNGTYACFVSNLATGRNNSIVKSITVSASGTSPGLSAGATVGIMIGVLVGVALI					26.7 ± 2.2%	25.3 ± 0.33%	5.67 ± 0.092%	5.42 ± 0.42%	
MMLHSALGLCLLLVTVSSNLAIAIKKEKRPPQTLSRGWGDDITWVQTYEEGLFYAQKSKKPLMVIHHLEDCQYSQALKKVFAQNEEIQEMAQNKFIMLNLMHETTDKNLSPDGQYVPRIMFVDPSLTVRADIAGRYSNRLYTYEPRDLPLLIENMKKALRLIQSEL [Q8TD06]					26.1 ± 2.8%	24.6 ± 0.5%	5.91 ± 1.9%	6.43 ± 1.1%	
MRGTPGDADGGGRAVYQSMCKPITGTINDLNQQVWTLQGQNLVAVPRSDSVTPVTVAVITCKYPEALEQGRGDPIYLGIQNPEMCLYCEKVGEQPTLQLKEQKIMDLYGQPEPVKPFLFYRAKTGRTSTLESVAFPDWFIASSKRDQPIILTSELGKSYNTAFELNIND [Q9NZH8]					22.9 ± 0.82%	23 ± 2.5%	4.85 ± 0.94%	5.31 ± 0.92%	
MERPLCSHLCSCLAMLALLSPLSLAQYDSWPHYPEYFQQPAPEYHQPQAPANVAKIQLRLAGQKRKHSEGRVEVYYDGQWGTVCDDDFSIHAAHVVCRELGYVEAKSWTASSSYGKGEGPIWLDNLHCTGNEATLAACTSNGWGVTDCKHTEDVGVVCSDKRIPGFKFDNSLINQIENLNIQVEDIRIRAILSTYRKRTPVMEGYVEVKEGKTWKQICDKHWTAKNSRVVCGMFGFPGERTYNTKVYKMFASRRKQRYWPFSMDCTGTEAHISSCKLGPQVSLDPMKNVTCENGLPAVVSCVPGQVFSPDGPSRFRKAYKPEQPLVRLRGGAYIGEGRVEVLKNGEWGTVCDDKWDLVSASVVCRELGFGSAKEAVTGSRLGQGIGPIHLNEIQCTGNEKSIIDCKFNAESQGCNHEEDAGVRCNTPAMGLQKKLRLNGGRNPYEGRVEVLVERNGSLVWGMVCGQNWGIVEAMVVCRQLGLGFASNAFQETWYWHGDVNSNKVVMSGVKCSGTELSLAHCRHDGEDVACPQGGVQYGAGVACSETAPDLVLNAEMVQQTTYLEDRPMFMLQCAMEENCLSASAAQTDPTTGYRRLLRFSSQIHNNGQSDFRPKNGRHAWIWHDCHRHYHSMEVFTHYDLLNLNGTKVAEGHKASFCLEDTECEGDIQKNYECANFGDQGITMGCWDMYRHDIDCQWVDITDVPPGDYLFQVVINPNFEVAESDYSNNIMKCRSRYDGHRIWMYNCHIGGSFSEETEKKFEHFSGLLNNQLSPQ [Q9Y4K0]									percentage of EdU-negative (MCF7; [4]): 25.4 ± 0.28%; percentage of EdU-negative (MCF7; [5]): 27.7 ± 0.84%; percentage of EdU-negative (hTERT-HMEC; [4]): 4.4 ± 0.43%; percentage of EdU-negative (hTERT-HMEC; [5]): 9.13 ± 1.5%

Source: the supplement of paper PMC11316812
